Stoichiometry N data for one substance are collected here from paper PMC6744678.

The assay addresses Flag-CCDC74B wild-type (in HeLa cells) (human). As to the kind of experiment: cross-linking; HeLa cells expressing Flag-CCDC74B treated with 1 mM disuccinimidyl suberate (DSS) in DMSO for 30 min; anti-Flag Western blot. In general terms: Immunoblotting shows a protein as a band on a membrane.

For the substance “Flag-CCDC74B wild-type (in HeLa cells) (natural protein)”, the stoichiometry N (in general, the number of molecules, sites or subunits per partner or assembly) came to 2.
